From patent publication US20240301069A1 (GUANGDONG FAPON BIOPHARMA, published 2024)
Numbering of substitutions follows the chain as printed.

T1: human ICOSLG protein (Acrobiosystem), hICOSLGhFc (human, UniProt O75144 19-258, limits assumed)
T1 construct: Bought; also called B7-H2; not shown: human Fc
T1 sequence (looked up): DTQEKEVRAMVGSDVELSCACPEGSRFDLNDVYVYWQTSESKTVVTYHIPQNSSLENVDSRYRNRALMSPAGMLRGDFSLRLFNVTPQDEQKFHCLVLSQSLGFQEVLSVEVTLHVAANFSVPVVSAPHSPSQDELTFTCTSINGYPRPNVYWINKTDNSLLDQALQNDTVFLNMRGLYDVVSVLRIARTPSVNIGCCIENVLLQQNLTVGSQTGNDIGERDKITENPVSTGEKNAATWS

T2: human PD-L2 protein (Acrobiosystem), hPD-L2 hFc (human, UniProt Q9BQ51 20-219, limits assumed)
T2 construct: Bought; also called B7-DC; not shown: human Fc
T2 sequence (looked up): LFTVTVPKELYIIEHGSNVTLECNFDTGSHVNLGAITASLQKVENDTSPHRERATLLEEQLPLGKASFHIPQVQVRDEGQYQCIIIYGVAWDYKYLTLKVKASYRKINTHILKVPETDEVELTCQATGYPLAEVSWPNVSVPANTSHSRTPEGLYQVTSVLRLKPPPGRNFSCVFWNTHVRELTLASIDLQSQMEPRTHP

T3: human CD86 protein (Acrobiosystem), hCD86 hFc (human, UniProt P42081 26-247, limits assumed)
T3 construct: Bought; also called B7-2; not shown: human Fc
T3 sequence (looked up): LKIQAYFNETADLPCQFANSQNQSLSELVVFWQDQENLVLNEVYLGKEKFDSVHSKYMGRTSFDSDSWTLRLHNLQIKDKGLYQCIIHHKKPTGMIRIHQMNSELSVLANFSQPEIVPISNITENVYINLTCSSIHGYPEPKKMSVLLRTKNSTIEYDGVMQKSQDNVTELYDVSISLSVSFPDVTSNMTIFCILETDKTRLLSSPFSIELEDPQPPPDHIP

T4: human B7-H3 protein (Acrobiosystem), hB7-H3 hFc (human, UniProt Q5ZPR3-2 29-245, limits assumed)
T4 construct: Bought; not shown: human Fc
T4 sequence (looked up): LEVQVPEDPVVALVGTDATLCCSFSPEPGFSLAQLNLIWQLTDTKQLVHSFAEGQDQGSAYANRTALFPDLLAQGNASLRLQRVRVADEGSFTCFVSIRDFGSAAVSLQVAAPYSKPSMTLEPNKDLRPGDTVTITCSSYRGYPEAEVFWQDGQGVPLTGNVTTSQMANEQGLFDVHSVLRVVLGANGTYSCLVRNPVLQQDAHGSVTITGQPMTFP

B1: F016-193 (antibody, V domains shown)
VH: EVQLQQSGPELVKPGASVKMSCKASGYTFTSYVMHWVKQKPGQGLEWIGYINPHNDGNKYNEKFKGKATLTSDKSSSSAYMELSSLTSEDSAVYYCAKQTMDYWGQGTSVTVSS
VL: DIVLTQSPASLAVSLGQRATLSCRASESVEFYGTTLMQWFQQKPGQPPKLLIYAASNVESGVPARFSGSGSGTDFSLNIHPVEEDDIAMYFCQQSRKVPYTFGGGTKLEIKR
notes: Mouse hybridoma monoclonal antibody; also called anti-human PD-L1 antibody F016-193
B2: F016-21 (antibody, V domains shown)
VH: B1 VH with S31D, H54Y, N58T, Y60F, S78T, M101L
VL: B1 VL with L21I, F31Y, Y32F, F40Y, K43R
notes: Mouse hybridoma monoclonal antibody purified from clone supernatant; also called anti-human PD-L1 antibody F016-21
B3: F016-568 (antibody, V domains shown)
VH: QLQESGPSLVKPSQTLSLTCSVTGDSITSDYWNWIRKFPGNKLEYMGYISYTGSTYYNPSLKSRISITRDTSKNQYYLQLNSVTTEDTATYYCAKQGGWLNAMDYWGQGTSVTVSS
VL: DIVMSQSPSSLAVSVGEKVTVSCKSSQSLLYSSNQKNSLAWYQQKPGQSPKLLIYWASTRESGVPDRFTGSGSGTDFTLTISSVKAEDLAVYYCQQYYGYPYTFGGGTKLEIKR
notes: Mouse hybridoma monoclonal antibody; also called anti-human PD-L1 antibody F016-568
B4: F016-870 (antibody, V domains shown)
VH: EVQLQESGPSLVKPSQTLSLTCSVTGDSITSGYWNWIRKFPGNKLEYMGYISYTGSTYQNPSLKSRISFTRDTSKNQYYLQLSSVTTEDTATYYCARSRAWIRTYFDYWGQGTTLTVSS
VL: EIVLTQSPALMAASPGEKVTITCSVSSSISSSNLHWYQQKSETSPKPWIYGTSNLASGVPVRFSGSGSGTSYSLTISSMEAEDAATYYCQQWSSYPLTFGAGTKLELKR
notes: Mouse hybridoma monoclonal antibody; also called anti-human PD-L1 antibody F016-870

Target: T1, human ICOSLG protein (Acrobiosystem), …
Test: ELISA on coated hFc fusion protein
Method: (§1) Supernatant was discarded; a blocking solution (1×PBS+1% BSA) was added in 200 μL/well; and blocking was performed for 1 h at 37° C. […] Washing was performed for 3 times with the 1×PBS. HRP-labeled goat anti-mouse IgG (sigma A0168-1ML) was added in 100 μL/well; incubation was performed for 30 min at 37° C. in a standing manner; and after washing was performed for 3 times with the 1×PBS, a color reaction was performed.

Row | Binder | binding result
1 | B1 | no binding (tested: 10 µg/mL)

Target: T2, human PD-L2 protein (Acrobiosystem), …
Test: ELISA on coated hFc fusion protein
Method: as §1

Row | Binder | binding result
2 | B1 | no binding (tested: 10 µg/mL)

Target: T5, human CTLA-4 protein (Acrobiosystem), hCTLA-4 hFc (human, UniProt P16410 37-162, limits assumed)
T5 construct: Bought; not shown: human Fc
T5 sequence (P16410 37-162 limits assumed): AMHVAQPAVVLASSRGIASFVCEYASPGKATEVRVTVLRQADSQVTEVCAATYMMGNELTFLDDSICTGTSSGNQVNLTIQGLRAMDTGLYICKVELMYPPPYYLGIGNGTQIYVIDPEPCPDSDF
Test: ELISA on coated hCTLA-4 hFc
Method: as §1

Row | Binder | binding result
3 | B2 | no binding (tested: 10 µg/mL)
4 | B1 | no binding (tested: 10 µg/mL)
5 | B3 | no binding (tested: 10 µg/mL)
6 | B4 | no binding (tested: 10 µg/mL)

Target: T2, human PD-L2 protein (Acrobiosystem), …
Test: ELISA on coated hPD-L2 hFc
Method: as §1

Row | Binder | binding result
7 | B2 | no binding (tested: 10 µg/mL)
8 | B3 | no binding (tested: 10 µg/mL)
9 | B4 | no binding (tested: 10 µg/mL)

Target: T6, human PD-L1 full-length protein on CHO-hPD-L1 stable cells (human, UniProt Q9NZQ7 19-290)
T6 construct: also called membrane protein PD-L1
T6 sequence (Q9NZQ7 19-290 limits assumed): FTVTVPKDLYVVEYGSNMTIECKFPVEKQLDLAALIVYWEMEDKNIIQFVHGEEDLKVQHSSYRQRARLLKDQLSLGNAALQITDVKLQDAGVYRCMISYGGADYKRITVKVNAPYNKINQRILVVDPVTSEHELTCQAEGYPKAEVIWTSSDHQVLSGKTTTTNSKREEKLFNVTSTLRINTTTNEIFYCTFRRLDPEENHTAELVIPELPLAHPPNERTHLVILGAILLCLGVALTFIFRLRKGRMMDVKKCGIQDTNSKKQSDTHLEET
Test: flow cytometry, antibody titration on CHO-hPD-L1 cells, MFI-APC

Row | Binder | EC50 [nM]
10 | B2 | 0.502
11 | B1 | 0.561
12 | B3 | 1.25
13 | B4 | 1.1

Target: T6, human PD-L1 full-length protein on …
Test: flow cytometry blocking assay: antibody titrated on CHO-hPD-L1 cells; blocked ligand recombinant human CD80-hFc

Row | Binder | IC50 [nM]
14 | B2 | 4.11
15 | B1 | 4.47
16 | B4 | 4.91

Target: T7, recombinant human PD-L1 protein carrying a hFc label (human, UniProt Q9NZQ7 19-238)
T7 construct: Self-produced; also called hPD-L1 hFc; PD-L1-hFc; not shown: human Fc label
T7 sequence (Q9NZQ7 19-238): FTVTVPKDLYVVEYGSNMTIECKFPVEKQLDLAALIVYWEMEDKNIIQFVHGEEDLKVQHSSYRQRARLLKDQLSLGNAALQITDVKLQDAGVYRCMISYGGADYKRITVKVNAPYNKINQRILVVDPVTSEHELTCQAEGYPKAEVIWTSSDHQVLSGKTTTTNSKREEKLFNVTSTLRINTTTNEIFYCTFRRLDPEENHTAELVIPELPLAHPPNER
Test: flow cytometry blocking assay (method 2): antibody titrated; binding of recombinant human PD-L1-hFc to PD-1 on CHO-hPD-1 cells is blocked
Method: The 1×FCM buffer was used to dilute the self-produced recombinant human PD-L1 protein carrying hFc, until the concentration reached 2 μg/mL. The 1×FCM buffer was used to resuspend the CHO-hPD-1 cells to the cell density of 2×10E6/mL, and the cells were evenly spread in the 96-well V base plate in 100 μL/well. […] After 250×g was taken to perform centrifugation for 5 min, supernatant was discarded in a sucking manner; after washing was performed once with the 1×FCM buffer, APC-labeled goat anti-mouse Fc fluorescent secondary antibodies (Biolegend) diluted by the 1×FCM buffer (dilution ratio being 1:500) were added in 100 μL/well; and incubation was performed on ice for 30 min. After 250×g was taken to perform centrifugation for 5 min, supernatant was discarded in a sucking manner. After washing was performed for 2 times with the 1×FCM buffer, the cells were resuspended by adding the 1×PBS in 100 μL/well; and the flow cytometer (Beckman, CytoFLEX) was used for detection.

Row | Binder | IC50 [nM]
17 | B2 | 1.18
18 | B1 | 0.993
19 | B3 | 1.69
20 | B4 | 1.61

Target: T3, human CD86 protein (Acrobiosystem), …
Test: ELISA on coated hCD86 hFc
Method: as §1

Row | Binder | binding result
21 | B2 | no binding (tested: 10 µg/mL)
22 | B1 | no binding (tested: 10 µg/mL)
23 | B3 | no binding (tested: 10 µg/mL)
24 | B4 | no binding (tested: 10 µg/mL)

Target: T1, human ICOSLG protein (Acrobiosystem), …
Test: ELISA on coated hICOSLG hFc
Method: as §1

Row | Binder | binding result
25 | B2 | no binding (tested: 10 µg/mL)
26 | B3 | no binding (tested: 10 µg/mL)
27 | B4 | no binding (tested: 10 µg/mL)

Target: T8, human PD-L1 extracellular domain recombinant protein hPD-L1-his (human, UniProt Q9NZQ7 19-238)
T8 construct: extracellular domain; Home-made; also called human PD-L1 recombinant protein; not shown: his label
T8 sequence (Q9NZQ7 19-238): as above
Test: BLI (ForteBIO QKe), hPD-L1-his captured on an anti-Penta-HIS sensor, antibody in solution
Method: An experimental method included the following.
An equilibration buffer (1×PBS+0.02% Tween20) was used to dilute a home-made human PD-L1 extracellular domain recombinant protein hPD-L1-his carrying a his label, until a final concentration reached 5 μg/mL. […] The whole reaction was undergone at 25° C. and 1000 rpm.

Row | Binder | Kd [nM]
28 | B2 | 0.0566
29 | B1 | 0.0098
30 | B3 | 0.101
31 | B4 | 0.0742

Target: T9, human CD28 protein (Acrobiosystem), hCD28 hFc (human, UniProt P10747 19-152)
T9 construct: Bought; not shown: human Fc
Test: ELISA on coated hCD28 hFc
Method: as §1

Row | Binder | binding result
32 | B2 | no binding (tested: 10 µg/mL)
33 | B1 | no binding (tested: 10 µg/mL)
34 | B3 | no binding (tested: 10 µg/mL)
35 | B4 | no binding (tested: 10 µg/mL)

Target: macaque PD-L1 on CHO-cynoPD-L1 stable cells (macaque, UniProt Q9NZQ7 19-290 (human entry))
Sequence (Q9NZQ7 other isoform, or with tags, fused parts or gaps limits assumed): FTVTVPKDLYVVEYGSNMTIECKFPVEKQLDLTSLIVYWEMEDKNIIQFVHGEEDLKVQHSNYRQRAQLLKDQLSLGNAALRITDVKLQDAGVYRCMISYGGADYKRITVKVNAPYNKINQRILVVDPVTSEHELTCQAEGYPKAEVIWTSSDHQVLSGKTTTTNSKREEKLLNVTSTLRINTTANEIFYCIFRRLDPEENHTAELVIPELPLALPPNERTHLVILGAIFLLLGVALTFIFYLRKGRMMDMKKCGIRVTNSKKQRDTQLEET
Test: flow cytometry, antibody titration on CHO-cynoPD-L1 cells, MFI-APC

Row | Binder | EC50 [nM]
36 | B2 | 0.947
37 | B3 | 1.29
38 | B4 | 0.949

Target: T10, human PD-L1 on IFNγ-stimulated A375 cells (human, UniProt Q9NZQ7 19-290)
T10 construct: whole, on cells; PD-L1 of the A375 cells themselves; also called PD-L1 membrane protein
T10 sequence (Q9NZQ7 19-290): as the sequence (Q9NZQ7 19-290 limits assumed) above
Test: flow cytometry, antibody titration on human IFNγ-stimulated A375 cells, MFI-APC
Method: An experimental process included the following.
50 ng/mL of the human IFNγ (R&D) was used to stimulate the expression of human PD-L1 on human melanoma cells A375 (Shanghai cell bank) overnight; on the next day, 0.25% pancreatin (Gibco) was used to digest the A375 cells; after washing was performed once with DPBS, live cell density was adjusted to 2E6/mL; and the mixture was added into the 96-well V base plate in 100 μL/well. […] The mixture was added into the cells in 100 μL/well; and incubation was performed on ice for 30 min in a standing manner, then 250×g was taken to perform centrifugation for 5 min, and supernatant was discarded in a sucking manner. After washing was performed for 2 times with the 1×FCM buffer, iFluor™633GAM fluorescent secondary antibodies (ATT bioquest) diluted by the 1×FCM buffer (dilution ratio being 1:400) were added in 100 μL/well; and incubation was performed on ice for 30 min. After 250×g was taken to perform centrifugation for 5 min, supernatant was discarded in a sucking manner. After washing was performed for 2 times with the 1×FCM buffer, the cells were resuspended by adding the 1×PBS in 100 μL/well; and the flow cytometer (Beckman, CytoFLEX) was used for detection.

Row | Binder | EC50 [nM]
39 | B2 | 0.151
40 | B1 | 0.128
41 | B3 | 0.175

Target: T4, human B7-H3 protein (Acrobiosystem), …
Test: ELISA on coated hB7-H3 hFc
Method: as §1

Row | Binder | binding result
42 | B2 | no binding (tested: 10 µg/mL)
43 | B1 | no binding (tested: 10 µg/mL)
44 | B3 | no binding (tested: 10 µg/mL)
45 | B4 | no binding (tested: 10 µg/mL)

Target: T6, human PD-L1 full-length protein on …
Test: flow cytometry blocking assay (method 1): antibody titrated on CHO-hPD-L1 cells; blocked ligand recombinant human PD-1-hFc
Method: […] The 1×FCM buffer was used to resuspend the CHO-hPD-L1 cells to the cell density of 2×10E6/mL, and the cells were evenly spread in the 96-well V base plate in 100 μL/well. […] After 250×g was taken to perform centrifugation for 5 min, supernatant was discarded in a sucking manner. After washing was performed for 2 times with the 1×FCM buffer, the cells were resuspended by adding the 1×PBS in 100 μL/well; and the flow cytometer (Beckman, CytoFLEX) was used for detection.

Row | Binder | IC50 [nM]
46 | B2 | 5.2
47 | B1 | 4.98
48 | B3 | 6.9
49 | B4 | 5.22
